In the supplement of paper PMC7877785:
± gives the uncertainty stated by the source.

Assay: self-splicing fitness, log relative to wild type (ln ratio); higher = more splicing; Tetrahymena group I intron in knt gene, E. coli kanamycin selection, DiMSum; sequences stand for … in CUCUCU…GGAGGGAAAAGUUAUCAGGCAUGCACCUGGUAGCUAGUCUUUAAACCAAUAGAUUGCAUCGGUUUAAAAGGCAAGACCGUCAAAUUGCGGGAAAGGGGUCAACAGCCGUUCAGUACCAAGUCUCAGGGGAAACUUUGAGAUGGCCUUGCAAAGGGUAUGGUAAUAAGCUGACGGACAUGGUCCUAACCACGCAGCCAAGUCCUAAGUCAACAGAUCUUCUGUUGAUAUGGAUGCAGUUCACAGACUAAAUGUCGGUCGGGGAAGAUGUAUUCUUCUCAUAAGAUAUAGUCGGACCUCUCCUUAAUGGGAGCUAGCGGAUGAAGUGAUGCAACACUGGAGCCGCUGGGAACUAAUUUGUAUGCGAAAGUAUAUUGAUUAGUUUUGGAGUACUCGUGGUCG
Outline: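 A randomised library covering all eight P1ex-region intron nucleotides was built with the intron in the knt kanamycin-resistance gene on pET-22b(+) and held in E. coli BL21(DE3). Cells were grown overnight at 37°C or 30°C on LB agar, with or without 25 μg/mL kanamycin, plus 100 μg/mL carbenicillin, 50 μM IPTG and 0.2% rhamnose, and pooled colonies were amplicon-sequenced on an Illumina HiSeq 2500. DiMSum fitness is the error-weighted combination of wild-type-normalised replicate fold changes, kanamycin versus none.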

Sequence | self-splicing fitness (ln) (30 °C) | self-splicing fitness (ln) (37 °C)
CCAAAGCAAUAUUACGAUUA | -3.39 ± 0.2 | -3.27 ± 0.25
UUCUAGCAAUAUUACGUUUU | -3.83 ± 0.23 | -2.92 ± 0.18
UGAAAGCAAUAUUACGCGGU |  | -1.78 ± 0.36
GUUGAGCAAUAUUACGAUGG | -3.31 ± 0.47 | -2.7 ± 0.29
UGUAAGCAAUAUUACGUACG | -0.346 ± 0.057 | -0.333 ± 0.067
GUCUAGCAAUAUUACGUAAA | -0.871 ± 0.085 | 0.379 ± 0.092
GAUCAGCAAUAUUACGAACA | 0.0135 ± 0.15 | 0.0485 ± 0.15
GUGCAGCAAUAUUACGCUGA | -2.38 ± 0.17 | -1.6 ± 0.16
GUCAAGCAAUAUUACGGCCC | -0.498 ± 0.33 | 
GUAUAGCAAUAUUACGUGUC | -4.58 ± 0.39 | -1.42 ± 0.14
ACCCAGCAAUAUUACGUAUC | -2.25 ± 0.077 | -1.63 ± 0.092
AGCAAGCAAUAUUACGGAAU | -3.44 ± 0.15 | -0.957 ± 0.093
UUCCAGCAAUAUUACGCAUG | -3.41 ± 0.25 | -1.7 ± 0.16
UACAAGCAAUAUUACGGGAC | -2.61 ± 0.16 | -2.58 ± 0.17
UGCCAGCAAUAUUACGAACU | -2.14 ± 0.11 | -0.854 ± 0.13
CGAUAGCAAUAUUACGGACA | -2.4 ± 0.28 | -0.977 ± 0.16
UCAAAGCAAUAUUACGGCUA | -0.599 ± 0.1 | -1.31 ± 0.13
AGGAAGCAAUAUUACGCUUG | -2.64 ± 0.14 | -0.302 ± 0.11
UUCCAGCAAUAUUACGUCUC | -3.17 ± 0.23 | -1.83 ± 0.2
AUUGAGCAAUAUUACGAUUC | -2.51 ± 0.22 | -2.86 ± 0.47
GUCUAGCAAUAUUACGAACC | -1.25 ± 0.19 | -0.145 ± 0.28
AGAGAGCAAUAUUACGGGGA | -2.46 ± 0.25 | -1.84 ± 0.28
UCGUAGCAAUAUUACGGGCG | -2.12 ± 0.18 | -1.11 ± 0.17
ACUGAGCAAUAUUACGCCGU |  | -2.31 ± 0.4
CCAGAGCAAUAUUACGUCAC | -2.34 ± 0.3 | 

Sequence | self-splicing fitness (ln) (30 °C) | self-splicing fitness (ln) (37 °C)
CCACAGCAAUAUUACGACGA | -3.12 ± 0.19 | -2.09 ± 0.16
AUCAAGCAAUAUUACGGCCA | -0.51 ± 0.074 | -0.264 ± 0.079
GAUGAGCAAUAUUACGUUUA | -3.13 ± 0.29 | -2.75 ± 0.23
CGCGAGCAAUAUUACGCAUC | -3.36 ± 0.38 | -0.312 ± 0.28
UUGUAGCAAUAUUACGGGUU | -4.7 ± 0.34 | -2.83 ± 0.3
CAAAAGCAAUAUUACGUUAU | -3.96 ± 0.13 | -2.5 ± 0.12
GGCGAGCAAUAUUACGCUAC | -1.38 ± 0.22 | 1.89 ± 0.48
CCCAAGCAAUAUUACGAGUG | -2.61 ± 0.16 | -2.94 ± 0.17
ACAUAGCAAUAUUACGCACU | -0.38 ± 0.083 | 0.676 ± 0.1
CGAGAGCAAUAUUACGAAAA |  | -2.18 ± 0.37
ACGCAGCAAUAUUACGGUAG | -3.56 ± 0.17 | -2.94 ± 0.19
GGAUAGCAAUAUUACGGCCG | -0.857 ± 0.18 | 0.103 ± 0.2
UUCUAGCAAUAUUACGAGAG | -2.3 ± 0.22 | -2.4 ± 0.29
AAUGAGCAAUAUUACGUAGA | -2.46 ± 0.24 | -2.56 ± 0.27
AUGGAGCAAUAUUACGCUAU | -3.89 ± 0.15 | -2.4 ± 0.22
CGGGAGCAAUAUUACGGCCG | -3.09 ± 0.31 | 
CCUGAGCAAUAUUACGGCGA | -3.62 ± 0.46 | -2.62 ± 0.38
GCCCAGCAAUAUUACGCGAU | -2.76 ± 0.13 | 0.119 ± 0.1
CUACAGCAAUAUUACGUGAC | -1.02 ± 0.09 | -0.853 ± 0.14
UGGAAGCAAUAUUACGUUCA | -0.654 ± 0.069 | 0.00518 ± 0.092
ACAAAGCAAUAUUACGUCGC | -2.42 ± 0.11 | -2.23 ± 0.16
GAUGAGCAAUAUUACGUUAU | -3.98 ± 0.23 | -1.77 ± 0.16
ACGUAGCAAUAUUACGAAUC | -4.01 ± 0.3 | -2.74 ± 0.3
CGAAAGCAAUAUUACGCGAU | -2.86 ± 0.21 | -2.15 ± 0.34
